Assay results as given in publication PMC2887293 (Protein expression and purification, 2010).
Where no end group is shown, it is not given here. fluorescein = fluorescein label attached at the C-terminus

B1: LSLPPVKLHK-fluorescein (peptide)
peptide: LSLPPVKLHK-fluorescein

Experiments:
… peptide = settings: cited from earlier work
[1] = target: human N-His6-mortalin (Δ1-51) (human, UniProt P38646 52-679); assay: fluorescence polarisation
Sequence of human N-His6-mortalin (Δ1-51) (P38646 52-679, stated change not applied): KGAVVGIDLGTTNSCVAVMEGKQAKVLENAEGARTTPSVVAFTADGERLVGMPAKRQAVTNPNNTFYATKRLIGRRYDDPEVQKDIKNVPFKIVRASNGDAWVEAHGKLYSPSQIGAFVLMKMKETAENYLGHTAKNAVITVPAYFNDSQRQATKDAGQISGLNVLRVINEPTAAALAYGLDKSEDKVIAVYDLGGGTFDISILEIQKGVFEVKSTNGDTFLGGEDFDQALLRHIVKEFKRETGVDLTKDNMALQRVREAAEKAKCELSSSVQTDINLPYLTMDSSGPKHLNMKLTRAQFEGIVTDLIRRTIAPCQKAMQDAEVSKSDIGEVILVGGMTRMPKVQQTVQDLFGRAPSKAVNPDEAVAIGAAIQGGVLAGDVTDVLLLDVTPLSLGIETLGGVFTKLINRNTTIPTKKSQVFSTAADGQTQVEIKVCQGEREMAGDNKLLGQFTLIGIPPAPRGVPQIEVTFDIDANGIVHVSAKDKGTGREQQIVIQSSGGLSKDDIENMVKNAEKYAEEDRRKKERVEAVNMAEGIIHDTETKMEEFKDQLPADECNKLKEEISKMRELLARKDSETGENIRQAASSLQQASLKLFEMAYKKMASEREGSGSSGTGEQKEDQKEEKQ

Molecule | Kd (… peptide) | Kd [1]
Ssq1 (from UniProt Q05931) | 2800 nM | 
B1 |  | 1200 ± 100 nM
